Measurements reported in article PMC10939263.

Legend:
C1-fused SRC kinases = assay: split reporter (BiFC, NanoBiT); Gaussia princeps luciferase complementation assay in human HEK293T cells; Gluc2 at the N terminus of SKAP1 or SKAP2 (N2), Gluc1 at the N terminus (N1) or C terminus (C1) of the SRC kinase; 100 ng plasmid pair, PEI; luminescence read in lysate one day later; normalized luminescence ratio (NLR), given relative to wild type or to SKAP2
FRK, C1-fused = FRK, C1-fused (UniProt P42685); assay: luciferase complementation assay (normalized luciferase ratio, NLR); details: HEK293T cells; one experiment; read off a plot
LYN, C1-fused = LYN, C1-fused (UniProt P07948); assay: as above; details: HEK293T cells; one experiment; read off a plot
LCK wild type, C1-fused = LCK wild type, C1-fused (UniProt P06239); assay: as above; details: HEK293T cells; one experiment; read off a plot
FGR, C1-fused = FGR, C1-fused (UniProt P09769); assay: as above; details: HEK293T cells; one experiment; read off a plot
LYN, N1-fused = LYN, N1-fused (UniProt P07948); assay: as above; details: HEK293T cells; one experiment; read off a plot
[1] = biological target: HCK wild type, C1-fused, P08631-2; assay: as above; details: HEK293T cells; one experiment; read off a plot
BLK, N1-fused = BLK, N1-fused (UniProt P51451); assay: as above; details: HEK293T cells; one experiment; read off a plot
[2] = biological target: FYN (isoform without exon 7), N1-fused, P06241-3; assay: as above; details: HEK293T cells; one experiment; read off a plot
[3] = biological target: FYN (isoform without exon 7), C1-fused, P06241-3; assay: as above; details: HEK293T cells; one experiment; read off a plot
BLK, C1-fused = BLK, C1-fused (UniProt P51451); assay: as above; details: HEK293T cells; one experiment; read off a plot

| Substance | SKAP2 normalized NLR, mean over C1-fused SRC kinases (against wild type SKAP2) (C1-fused SRC kinases) | ratio to parent (FRK, C1-fused) | ratio to parent (LYN, C1-fused) | ratio to parent (LCK wild type, C1-fused) | ratio to parent (FGR, C1-fused) | ratio to parent (LYN, N1-fused) | ratio to parent [1] | ratio to parent (BLK, N1-fused) | ratio to parent [2] | ratio to parent [3] | ratio to parent (BLK, C1-fused) |
| --- | --- | --- | --- | --- | --- | --- | --- | --- | --- | --- | --- |
| SRC kinase associated phosphoprotein 1 (SKAP1), wild type, N2-fused (from UniProt Q86WV1 1-359) (natural protein) | 0.39 | – | – | – | – | – | – | – | – | – | – |
| SRC kinase associated phosphoprotein 1 (SKAP1), wild type, N2-fused (from UniProt Q86WV1) DIM- | – | 0.64 | 1.2 | 0.68 | 1.3 | 0.93 | 1.3 | 0.7 | 0.66 | 0.78 | 0.9 |
